Assay results published in US20050054833A1 (published 2005).

Key:
[1] = molecular target: T1, human CD23 (low affinity receptor for IgE, FceRII/CD23) on 8866 cells (human, UniProt P06734 1-321); assay: cell ELISA on 8866 cells
T1 construct: whole, on cells; Target of the first step cell ELISA (glutaraldehyde-fixed 8866 cells); also called cellular CD23; FCEL
T1 sequence (looked up): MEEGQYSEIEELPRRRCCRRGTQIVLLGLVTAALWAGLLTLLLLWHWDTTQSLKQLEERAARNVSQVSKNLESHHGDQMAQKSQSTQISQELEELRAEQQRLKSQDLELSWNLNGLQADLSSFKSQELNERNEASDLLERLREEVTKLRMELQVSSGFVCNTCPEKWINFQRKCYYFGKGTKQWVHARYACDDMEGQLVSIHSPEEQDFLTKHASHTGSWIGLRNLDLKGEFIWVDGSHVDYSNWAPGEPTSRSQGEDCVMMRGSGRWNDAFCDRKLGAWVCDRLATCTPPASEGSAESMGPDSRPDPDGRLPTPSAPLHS

[2] = molecular target: T1, human CD23 (low affinity receptor for …); assay: cell ELISA on fixed 8866 cells, hybridoma supernatant
Description: The first step of the ELISA comprised the transferral of fifty microliters of supernatant from each well to ninety-six well plates which had previously been coated with 10⁵ 8866 cells (CD23 positive cell line) per well. These plates were made by first coating the plates with 50 μl of aqueous solution containing twenty μg/ml Poly L-Lysine (Sigma Catalog #P1399, MW 150,000-300,000) for thirty minutes at room temperature. The remaining solution was removed (“flicked out”) and the plates left to dry. Once dry, fifty μl of 8866 cells in PBS were transferred and spun at 600 g for five minutes. The 8866 cells were covalently bound to the plate by adding fifty μl 0.5% glutaraldehyde (Sigma Catalog #G6257) in phosphate buffered saline (PBS) for 15 minutes. The glutaraldehyde was removed (flicked out) and the plates blocked with one hundred fifty μl 100 mM glycine (Sigma Catalog #G-2879) in 0.1% BSA-PBS. […] The presence of the HRPO was detected by a color development after the addition of a TMB reagent (Kirkegaard & Perry, Gaithersburg, Md., Catalog #50-76-02 and 50-65-02), 100 μl/well. […] Optical density (OD) was measured at […] on a spectrophotometer (Titertek Multiscan). The OD values greater than two times the background were scored as positive.

binding result [1]	binding result [2]	Binder
binds	–	primate anti-human CD23 monoclonal antibody 5E8 (antibody, V domains shown, N-linked oligosaccharide at the asparagine of the heavy chain variable region glycosylation site (Kabat 75), Monoclonal antibody from a cynomolgus macaque heterohybridoma; also called primate 5E8) VH: EVQLVESGGGLAKPGGSLRLSCAASGFRFTFNNYYMDWVRQAPGQGLEWVSRISSSGDPTWYADSVKGRFTISRENANNTLFLQMNSLRAEDTAVYYCASLTTGSDSWGQGVLVTVSS VL: DIQMTQSPSSLSASVGDRVTITCRASQDIRYYLNWYQQKPGKAPKLLIYVASSLQSGVPSRFSGSGSGTEFTLTVSSLQPEDFATYYCLQVYSTPRTFGQGTKVEIK
–	binds	primate anti-human CD23 monoclonal antibody 6G5 (antibody, V domains shown, Monoclonal antibody from a cynomolgus macaque heterohybridoma; also called primate 6G5) VH: QLQLQESGPGVVKPSETLSLTCAVSGGSVSSSNWWTWIRQPPGKGLEWIGRISGSGGATNYNPSLKSRVIISQDTSKNQFSLNLNSVTAADTAVYYCARDWAQIAGTTLGFWGQGVLVTVSS VL: QSAPTQPPSVSGSPGQSVTISCTGTSDDVGGYNYVSWYQHHPGKAPKLMIYDVAKRASGVSDRFSGSKSGNTASLTISGLQAEDEADYYCCSYTTSSTLLFGRGTRLTVLG
